Assay results taken from the supplement of paper PMC9170038.

System: MS2 coat protein
Assay: apparent KD of MS2 coat protein; designed switch direction (-1 OFF switch, 1 ON switch): -1; higher = weaker reporter binding
Outline: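 Normalised cluster fluorescence was curve-fitted, and each design's median over clusters is its apparent KD. Before this, SNAP-549-labelled MS2 coat protein was titrated from 0.7 or 1.5 nM, doubling to 3 µM, over RNA switches transcribed on Illumina chips by stalled E. coli RNA polymerase. Titrations had no input, 200 uM small-molecule ligand, or an oligonucleotide input, and steps lasted 0.8–1.5 h (lowest) to 10–20 min (highest).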

[1] = input ligand: microRNA oligo, concentration not stated
[2] = Eterna round: R95, input ligand: FMN 200 uM
[3] = Eterna round: R95, input ligand: microRNA oligo, concentration not stated
[4] = Eterna round: R95, input ligand: none

Row | Sequence | apparent KD of MS2 coat protein (input ligand: FMN 200 uM) [nM] | apparent KD of MS2 coat protein (input ligand: none) [nM] | apparent KD of MS2 coat protein [1] [nM] | apparent KD of MS2 coat protein [2] [nM] | apparent KD of MS2 coat protein [3] [nM] | apparent KD of MS2 coat protein [4] [nM]
1 | ACAGUGUUAGGAUAUGUGAGAGUUAGUCUCGACUAGUCGAAGCAGAAGGAACAUGAGGAUCACCCAUGUAGAUC [EX4 #78] (Eterna round: R97, puzzle: Exclusion 4) | 114 | 46.7 | – | – | – | –
2 | UAUAUAUAGUAAGGAUAUGUAAUUAAUUUAUAAACAGAAGGUACUGACAUGAGGAUCACCCAUGUUUUAGUGUGGGCAUGUAGA [JMF's solution 35] (Eterna round: R96, puzzle: Exclusion NG 1) | – | – | 71.6 | – | – | –
3 | ACUCAACAUGAGGAUCACCCAUGUCAGGAUAUCUCUAUUUUGCGCGGGAGCAGAAUAGAGAGAAGGGACAACCU [Eternabot (Original) Solution 3] (Eterna round: R97, puzzle: Exclusion 1) | 91.2 | 42.8 | – | – | – | –
4 | UCCUCACAUGAGGAUCACCCAUGUCAGGAUAUGCGCGGCCAAAAGGGCUGCUAAGGCAGCAGAAGGGACGUGAA [Rarequtece] (puzzle: Exclusion 1) | – | – | – | 18.7 | 14.1 | 15
5 | AGUUAGAUAGGAUAUGCCCGAGAUAACAUGAGGAUCACCCAUGUGACCGAAUCUAUUCUAGCAGAAGGGUUUAGGA [Mod of ViennaUCT 18 - Jieux - Exclusion 5] (Eterna round: R97, puzzle: Exclusion 5) | 23.6 | 31.3 | – | – | – | –
6 | AAUAACAGAGGAUAUACUGUUUUAUGUGUUUGUUAUUUUGAACAUGAGGAUCACCCAUGUAGAAGGCUGAAUAA [JMF 23] (puzzle: Exclusion 2) | – | – | – | – | 21.3 | –
7 | CUGAGGUAGCGGUCCUAUGACAUGAGGAUCACCCAUGUACCUUGCUACGAGCUUUUUGCUCGUCUUAUGAUUCUCGG [JL Atriat mod 4] (puzzle: Sensor v3, turn-off variant 1) | – | – | – | 166 | 93.9 | 250
8 | AGGUGCUUCUGGAGACAUGAGGAUCACCCAUGUCGAGUCAGCGAGGAUAUCGGUAAGACAUGUGAUGAGAAGGCGCAGACCGAU [Ex NG3 #52] (Eterna round: R96, puzzle: Exclusion NG 3) | 48.6 | 30.8 | 22.6 | – | – | –
9 | UUUUGGCAUGUAGGAUAUGGGUCCGAUUAGGAUUUAGAAGGACAUGAGGAUCACCCAUGUGCAUUUAAUUGGUCUUUACUUUUU [EXclNG1-LROPPY13] (Eterna round: R96, puzzle: Exclusion NG 1) | 115 | 72.9 | 61.2 | – | – | –
10 | CUUUUGUGAGGAUAUUAGUAGUAAAUAAAUUAAAUUACUACUGAGAAGGCACAUGAGGAUCACCCAUGUUCCUC [salish99_ex4_r3_057] (puzzle: Exclusion 4) | – | – | – | – | 32 | –
11 | UUUAAUUUUUUUUUUUUACAAGCUUUUUGCUCGUCUUAUACAUGAGGAUCACCCAUGUGGGUAGAAAAUAAAUUAUC [JMF 91] (puzzle: Sensor v3, turn-off variant 2) | – | – | – | 44.1 | 65.2 | 48.7
12 | UCGCUGCGAGGAUAUACAUGAGGAUCACCCAUGUACGGGUCCGGGUCUUCGUCCAUUAGUAGAAGGCGCAGUGA [JL Laongeedie mod 2] (puzzle: Exclusion 3) | – | – | – | – | 47.7 | –
13 | AAUACAAGCGAGAUCCUAAACAUGAGGAUCACCCAUGUGCUCGUCUUAUAAAGUACUAUCACGAAAGUGAUAGUACA [Sensor 3, v1 - 67] (puzzle: Sensor v3, turn-off variant 1) | – | – | – | 16.7 | 157 | 16.5
14 | CGUGCGUAUGUGAGGAUAUGCUGGUCCUUGGAUCGGCAGAAGGCACAUGAGGAUCACCCAUGUGGUGUCGUUCC [salish99_Bmod_ex4_094] (Eterna round: R96, puzzle: Brourd's mod of Exclusion 4) | 328 | 39.1 | 30.8 | – | – | –
15 | AGGUGUAGAGGAUAUACUGCAAAGCACAUGAGGAUCACCCAUGUCCCUCUAUGAGAUUAAGUAGAAGGCUACACCA [Omei Ex5 C4] (Eterna round: R97, puzzle: Exclusion 5) | 55.7 | 49.9 | – | – | – | –
16 | UCGGCGCGAGGAUAUACGUUUGCUUUUUAGGGUCGUGGCGUACAUGAGGAUCACCCAUGUAGAAGGCGCGCCGC [Apr-15 SS2-29] (puzzle: Exclusion 2) | – | – | – | – | 14.6 | –

Row | Sequence | apparent KD of MS2 coat protein (input ligand: FMN 200 uM) [nM] | apparent KD of MS2 coat protein (input ligand: none) [nM] | apparent KD of MS2 coat protein [1] [nM] | apparent KD of MS2 coat protein [2] [nM] | apparent KD of MS2 coat protein [3] [nM] | apparent KD of MS2 coat protein [4] [nM]
17 | CUCUUGUUAGGAUAUCAAACCAGUGACGGAACCACUGGAAGUGAGAAGGGACAUGAGGAUCACCCAUGUAAGAA [Edraate] (puzzle: Exclusion 4) | – | – | – | – | 52.3 | –
18 | CGUCCGAACUCAGGAUAUCAACUUAACAACAUGAGGAUCACCCAUGUGGCCUGUAAAACCCGAGAUGAGAAGGGAGGGCGGGCC [Usceondiat] (Eterna round: R96, puzzle: Exclusion NG 2) | 13.6 | 19.7 | 15.4 | – | – | –
19 | AAUUCACAUGAGGAUCACCCAUGUCAGGAUAUGGUUUCACUUUUUUCUUUUCUUGAUUCCAGAAGGGACAGCUA (puzzle: Exclusion 1) | – | – | – | – | 62.6 | –
20 | GAUUAUGCGAGCUUUAGGGACAUGAGGAUCACCCAUGUUCGUCUUAUUAAUCUGGGUACACUAGCAUACCUAAAUCU [JMF 8] (puzzle: Sensor v3, turn-off variant 1) | – | – | – | 26.9 | 44.1 | 30.5
21 | AGUUGGCGAGGAUAUACAUGAGGAUCACCCAUGUGAGAGAAUAAAGUGAGGAAGAAAAGUAGAAGGCGCUGACG [Mat - Exclusion 3 - Mod of Salish D7] (puzzle: Exclusion 3) | – | – | – | 61.1 | 52 | 53.8
22 | CCUGCACAUGAGGAUCACCCAUGUCAGGAUAUCUCGCCGUCGGCUUGCCGACGGUAUUAGAGAAGGGACACGGG [JL Tixe mod 1] (puzzle: Exclusion 1) | – | – | – | – | 22 | –
23 | CACCGUUACAGAGGAUAUGGUACAUGAGGAUCACCCAUGUAAUAAAUGAGAAUUUCGAAUGUAAUCCAGAAGGCUGGAAUCGGC [Ostricism 74 - Jieux - Exclusion NG 2] (Eterna round: R96, puzzle: Exclusion NG 2) | 228 | 96.3 | 85.2 | – | – | –
24 | CGUGCGUAUGUGAGGAUAUGCUGGUCCUUGGAUCAGCAGAAGGCACAUGAGGAUCACCCAUGUGGUGUCGUACU [salish99_Bmod_Ex4_017] (puzzle: Brourd's mod of Exclusion 4) | – | – | – | – | 161 | –
25 | AAGUAUAGAGGAUAUAGUGAGUACUACAUGAGGAUCACCCAUGUUCUUCAAAGCGUAUUUCUAGAAGGCUGAUGAA [EX-5 Malc#15] (puzzle: Exclusion 5) | – | – | – | 58.4 | 38.8 | 51.5
26 | AGAUGUAGAUACCGAUCCUACAUGAGGAUCACCCAUGUAGCAAGACGUGCACGCGAAGCUCGUCAGACUACCAGAAG [salish99_TOv1_r3_083] (puzzle: Sensor v3, turn-off variant 1) | – | – | – | 114 | 99.7 | 137
27 | CAGUACUACAAGCUUGGGAACAUGAGGAUCACCCAUGUUCGUCUUAUUGAUCUAGGUACGCUGACGUACCUAGAUCU [JL-sv1-2.17 Brourd mod] (puzzle: Sensor v3, turn-off variant 1) | – | – | – | 16.5 | 27.1 | 14.7
28 | CUAAAUCAUGUAGGAUAUGCAUAGCAAAGCUAUGCAGAAGGACAUGAGGAUCACCCAUGUCAUUCCGUCUGGAGACAGACGGGA [Mat - Exclusion NG 1 - Mod of JL - D56] (Eterna round: R96, puzzle: Exclusion NG 1) | 142 | 32.5 | 25 | – | – | –
29 | CUAGUAUAUCAGGAUAUGAUUUUAUAUAGUUGGUCAGAAGGGAUGACAUGAGGAUCACCCAUGUUAAGGAGUGA [JR_Ex6_Sub043] (Eterna round: R97, puzzle: Exclusion 6) | 143 | 118 | – | – | – | –
30 | AACCCUAGGGUCAGACGCACAAGCUUUUUGCUCGUUUUAACAUGAGGAUCACCCAUGUCUAGUGGAUCUGAUCGGGC [Isreen] (puzzle: Sensor v3, turn-off variant 2) | – | – | – | 24.7 | 137 | 26.2
31 | GGUUUGGGAGGAUAUGGUUUGAAUAACAUGAGGAUCACCCAUGUAAAUAGAUCUUCUAGGCCAGAAGGCUCGGGCC [-22.1, -20.72 kcal, A 28%] (Eterna round: R97, puzzle: Exclusion 5) | 46 | 27.8 | – | – | – | –
